In publication PMC4203341 (Developmental cell, 2014):

Target: T1, Trim58 PS domain (purified, for SEC-MALLS) (mouse, UniProt Q5NCC9 1-485)
T1 sequence (looked up): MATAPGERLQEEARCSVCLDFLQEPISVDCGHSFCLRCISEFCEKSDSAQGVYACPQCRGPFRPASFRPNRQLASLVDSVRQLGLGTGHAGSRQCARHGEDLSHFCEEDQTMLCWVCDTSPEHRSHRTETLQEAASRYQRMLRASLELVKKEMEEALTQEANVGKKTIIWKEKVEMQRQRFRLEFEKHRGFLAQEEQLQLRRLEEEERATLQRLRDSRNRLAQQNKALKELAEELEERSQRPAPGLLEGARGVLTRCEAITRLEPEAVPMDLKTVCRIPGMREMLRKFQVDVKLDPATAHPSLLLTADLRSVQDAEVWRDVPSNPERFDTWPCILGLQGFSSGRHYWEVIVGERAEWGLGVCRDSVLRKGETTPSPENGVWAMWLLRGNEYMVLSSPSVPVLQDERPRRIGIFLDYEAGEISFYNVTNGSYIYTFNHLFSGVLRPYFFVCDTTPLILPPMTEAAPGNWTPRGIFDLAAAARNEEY
Assay: SEC-MALS

stoichiometry N: 1
B1: GST-DIC (1–120) (domain or fragment)
chain: MSDKSDLKAELERKKQRLAQIREEKKRKEEERKKKETDQKKEAAVSVQEESDLEKKRREAEALLQSMGLTTDSPIVPPPMSPSSKSVSTPSEAGSQDSGDGAVGSRRGPIKLGMAKITQV
